{"source": "paper PMC8172134", "biological_target": "WIV16 RBD ([change] domain) (bat SARS-like coronavirus WIV16)", "data": [{"substance": "human monoclonal antibody 47D11", "values": [{"measurement": "IC50 of neutralization of WIV16-S pseudotyped VSV (luciferase) on VeroE6 cells", "result": 0.165, "unit": "µg/mL"}]}]}
